Laboratory results reported in PMC9274624.

Key:
[1] = biological target: bovine ACE2 extracellular domain (residues 1-740) fused with the Fc domain of mouse IgG (bovine) (UniProt Q58DD0); test: SPR
[2] = biological target: cat ACE2 extracellular domain (residues 1-740) fused with the Fc domain of mouse IgG (cat) (UniProt Q56H28); test: SPR
UniProt Q56H28, sequence (Q56H28 18-740): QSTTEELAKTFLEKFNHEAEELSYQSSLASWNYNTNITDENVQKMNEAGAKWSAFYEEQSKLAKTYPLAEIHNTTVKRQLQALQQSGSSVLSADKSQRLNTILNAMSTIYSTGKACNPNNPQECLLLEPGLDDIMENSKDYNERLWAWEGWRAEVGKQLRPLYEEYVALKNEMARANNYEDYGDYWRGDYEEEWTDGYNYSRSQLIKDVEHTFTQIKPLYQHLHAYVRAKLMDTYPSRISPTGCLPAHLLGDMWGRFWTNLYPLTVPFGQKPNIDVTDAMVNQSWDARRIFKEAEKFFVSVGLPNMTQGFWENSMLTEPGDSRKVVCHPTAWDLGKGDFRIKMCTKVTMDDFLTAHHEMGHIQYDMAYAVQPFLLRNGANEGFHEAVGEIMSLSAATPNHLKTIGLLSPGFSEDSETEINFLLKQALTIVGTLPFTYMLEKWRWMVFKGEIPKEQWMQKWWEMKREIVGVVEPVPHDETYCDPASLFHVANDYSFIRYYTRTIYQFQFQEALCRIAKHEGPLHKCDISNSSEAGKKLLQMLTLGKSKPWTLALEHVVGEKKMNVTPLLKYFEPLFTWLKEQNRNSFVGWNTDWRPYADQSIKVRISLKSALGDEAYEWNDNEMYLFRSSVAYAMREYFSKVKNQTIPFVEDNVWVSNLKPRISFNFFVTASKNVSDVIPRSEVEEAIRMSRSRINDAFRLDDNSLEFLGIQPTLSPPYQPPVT

UniProt Q58DD0, sequence (Q58DD0 18-740): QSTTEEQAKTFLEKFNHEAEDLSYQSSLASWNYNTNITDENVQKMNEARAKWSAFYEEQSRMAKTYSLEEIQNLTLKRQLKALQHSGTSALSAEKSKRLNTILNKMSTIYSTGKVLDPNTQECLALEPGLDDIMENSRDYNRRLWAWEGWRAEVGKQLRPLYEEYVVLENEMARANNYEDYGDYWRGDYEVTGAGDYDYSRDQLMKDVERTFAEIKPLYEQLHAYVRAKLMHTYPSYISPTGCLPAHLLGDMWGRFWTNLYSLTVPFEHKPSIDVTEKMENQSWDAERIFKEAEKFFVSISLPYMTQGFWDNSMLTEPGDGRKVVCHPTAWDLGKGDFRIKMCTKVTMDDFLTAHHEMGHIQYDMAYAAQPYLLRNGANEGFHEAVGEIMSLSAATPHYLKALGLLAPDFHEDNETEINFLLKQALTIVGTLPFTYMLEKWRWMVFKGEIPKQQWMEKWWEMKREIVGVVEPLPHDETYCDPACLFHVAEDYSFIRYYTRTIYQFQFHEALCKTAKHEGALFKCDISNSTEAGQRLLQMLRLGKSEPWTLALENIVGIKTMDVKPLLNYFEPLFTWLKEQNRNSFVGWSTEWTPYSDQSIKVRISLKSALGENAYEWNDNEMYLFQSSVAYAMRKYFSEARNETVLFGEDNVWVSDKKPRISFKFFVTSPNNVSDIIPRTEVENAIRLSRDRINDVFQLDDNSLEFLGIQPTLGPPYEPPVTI

## SARS-CoV-2 Delta RBD (residues 319-541) (from UniProt P0DTC2 319-541) (domain or fragment)
[1]
  Kd: 71.3 nM
[2]
  Kd: 53.4 nM
